Source: US20070196350A1, “Compositions and Methods for Effecting Controlled Posterior Vitreous Detachment” (priority 2006, published 2007)
Several values for one entry are separate records, joined by “and”; a condition that tells them apart may be missing. Equal values may be shown once.

System: eyes from Dutch Belted Rabbits (vitreoretinal interface)
Assay: Ex vivo SEM scoring of residual vitreous (posterior vitreous detachment) after intravitreal injection in rabbit eyes
Parameters: key to Score of vitreo-retinal specimen, IN (Infra-Nasal Area) / Score of vitreo-retinal specimen, INL (Infra-Nasal Inferior Area) / Score of vitreo-retinal specimen, IC (Infra-Central Area) / Score of vitreo-retinal specimen, ICL (Infra-Central Lower Area) / Score of vitreo-retinal specimen, IT (Infra-Temporal Area) / Score of vitreo-retinal specimen, ITL (Infra-Temporal Lower Area): Grade 0 - extensive amount of residual vitreous; Grade 1 - moderate amount of residual vitreous; Grade 2 - mild amount of residual vitreous; Grade 3 - Inner retina visible through sparse collagen fibrils; Grade 4 - None to trace collagen fibrils covering inner retina
Description: The purpose of this ex vivo study was to compare the efficacy of 200 μg human-derived plasmin (Bausch & Lomb Incorporated's compound name “BOL-303209-X”) alone and in combination with triamcinolone acetonide (“TA,” a glucocorticoid anti-inflammatory medicament) on PVD in Dutch Belted Rabbits using scanning electron microscopy. This study was designed to use intravitreal injection of TA to enhance clinical observations for clear identification of PVD, to minimize possible inflammatory responses, and to assess whether improved efficacy could be achieved by the combined use of BOL-303209-X and TA.
Twelve (12) normal eyes from six (6) Dutch Belted Rabbits (both male and female) were used. All right eyes from 6 rabbits were injected with BOL-303209-X plus vehicle (Group 1, n=6 eyes) and all left eyes were injected with BOL-303209-X plus TA (Group 2, n=3, 2 mg TA/eye; Group 3, n=3, 4 mg TA/eye). BOL-303209-X was freshly prepared and kept on ice before use.
On the day of operation, rabbits were anesthetized, eyes disinfected and pupils dilated 15-20 minutes prior to injection. Each rabbit received two intravitreal injections. In Groups 1, 2, and 3, an initial 50-μl injection of BOL-303209-X at a dose of 200 μg per eye in a formulation of 5 mM epsilon-aminocaproic acid (“EACA”)/0.05% Tween 80/0.9% saline was given intravitreally in both the right and left eyes. In Group 1 (Control) a second 50-μl injection of formulation vehicle (0.05% Tween 80/0.05% hydroxypropyl methylcellulose (HPMC)/0.9% saline) was delivered in the right eyes 5 minutes after the first injection. In Groups 2 and 3, a formulation containing TA at a dose of either 2 mg (Group 2) or 4 mg (Group 3) was injected into the left eyes in the same way.
Eyes were examined with a slit-lamp biomicroscope assisted with a Volk Lens at 4 days prior to injection for baseline documentation. To evaluate the efficacy of BOL-303209-X, all eyes were directly observed under a surgical microscope for 5 minutes after injection for possible changes in the vitreo-retina. The injected eyes were followed up at 7 and 14 days after injection. Attention was paid particularly to the vitreoretinal interface for signs of PVD and to the retina for signs of toxicity during slit-lamp examination.
Fourteen days after injection the in-life phase of the study was terminated, the rabbits were euthanized by over dose of pentobarbital, their eyes enucleated and fixed in Karnovsky's solution for at least 24 hours. The fixed eyes were processed further for SEM. The posterior pole of each eye was examined. Micrographs at magnifications ranging from 100-2,500× of each specimen or up to 10,000× in some cases were examined to assess the extent of posterior vitreous detachment. The amount of residual vitreous was scored on a scale of 0-4 with a score of 4 representing complete removal of vitreous from the inner retina according to a standard protocol.
After enucleation, the eyes were trimmed of external muscle, fat, and connective tissue, and cut using a razor blade about 3 mm behind the limbus to facilitate penetration of fixative. The eyes were placed in ice-cold fixative consisting of 2% formaldehyde (from paraformaldehyde), 2.5% glutaraldehyde, in 0.1 phosphate buffer, with 0.1 M sucrose and 0.5 mM CaCl2 added, pH 7.2. Each eye was immersed in approximately 40 ml fixative. After one hour, the fixative was exchanged with fresh fixative and the eyes were transported to B&L and stored refrigerated in fixative.
Tissue specimen that included sclera, choroid, retina with the optic nerve (approximately 1 cm in diameter) were surgically removed from each eye. These were dehydrated though a graded ethanol series (30%, 50%, 70%, 85%, 95%, 100%) for thirty minutes per dilution. Dehydrated samples were dried to the critical point (Samdri-PVT-3B, Tousimis, Rockville, Md.) and mounted on aluminum SEM pucks with colloidal graphite (Ted Pella, Inc, Redding, Calif.). […]

[1] = Group 1: 200 μg BOL-303209-X per eye + vehicle, SEM day 14, scale 0-4, one value per eye

B1: BOL-303209-X: human-derived plasmin (Bausch & Lomb Incorporated's compound name “BOL-303209-X”) (protein, UniProt P00747 20-580; P00747 581-810, looked up)
Plasmin heavy chain A: EPLDDYVNTQGASLFSVTKKQLGAGSIEECAAKCEEDEEFTCRAFQYHSKEQQCVIMAENRKSSIIIRMRDVVLFEKKVYLSECKTGNGKNYRGTMSKTKNGITCQKWSSTSPHRPRFSPATHPSEGLEENYCRNPDNDPQGPWCYTTDPEKRYDYCDILECEEECMHCSGENYDGKISKTMSGLECQAWDSQSPHAHGYIPSKFPNKNLKKNYCRNPDRELRPWCFTTDPNKRWELCDIPRCTTPPPSSGPTYQCLKGTGENYRGNVAVTVSGHTCQHWSAQTPHTHNRTPENFPCKNLDENYCRNPDGKRAPWCHTTNSQVRWEYCKIPSCDSSPVSTEQLAPTAPPELTPVVQDCYHGDGQSYRGTSSTTTTGKKCQSWSSMTPHRHQKTPENYPNAGLTMNYCRNPDADKGPWCFTTDPSVRWEYCNLKKCSGTEASVVAPPPVVLLPDVETPSEEDCMFGNGKGYRGKRATTVTGTPCQDWAAQEPHRHSIFTPETNPRAGLEKNYCRNPDGDVGGPWCYTTNPRKLYDYCDVPQCAAPSFDCGKPQVEPKKCPGR
Plasmin light chain B: VVGGCVAHPHSWPWQVSLRTRFGMHFCGGTLISPEWVLTAAHCLEKSPRPSSYKVILGAHQEVNLEPHVQEIEVSRLFLEPTRKDIALLKLSSPAVITDKVIPACLPSPNYVVADRTECFITGWGETQGTFGAGLLKEAQLPVIENKVCNRYEFLNGRVQSTELCAGHLAGGTDSCQGDSGGPLVCFEKDKYILQGVTSWGLGCARPNKPGVYVRVSRFVTWIEGVMRNN
modifications: plasmin plasma-derived
Group 1 (n=6 eyes): 200 μg BOL-303209-X per eye + vehicle
  n ≧ 3, number of eyes of the group with mean score of 3 or higher: 2
Group 1 (n=6 eyes): 200 μg BOL-303209-X per eye + vehicle, SEM day 14, scale 0-4
  Mean score of the group: 2.6
[1]
  Mean score of 6 inferior fields, per eye: 3.2 and 2.8 and 2.5 and 1.7 and 3.0
  Score of vitreo-retinal specimen, IC (Infra-Central Area): 4 and 3
  Score of vitreo-retinal specimen, ICL (Infra-Central Lower Area): 3 and 2 and 1
  Score of vitreo-retinal specimen, INL (Infra-Nasal Inferior Area): 3 and 1
  Score of vitreo-retinal specimen, IT (Infra-Temporal Area): 3 and 2
  Score of vitreo-retinal specimen, ITL (Infra-Temporal Lower Area): 3 and 2 and 1
Group 1: 200 μg BOL-303209-X per eye + vehicle, per-eye count
  n ≧ 3 (eye with mean score of 3 or higher), per eye: 1
Group 1: 200 μg BOL-303209-X per eye intravitreal + second injection of vehicle, SEM 14 days after injection, scale 0-4, one value per eye
  Score of vitreo-retinal specimen, IN (Infra-Nasal Area): 3 and 2
